Source: patent publication US5268275, “Vitamin K-dependent carboxylase” (The University of North Carolina at Chapel Hill, dated 1993)

T1: bovine vitamin K-dependent carboxylase (94,000 Mr protein from bovine liver microsomes) (bovine, UniProt Q07175)
T1 sequence: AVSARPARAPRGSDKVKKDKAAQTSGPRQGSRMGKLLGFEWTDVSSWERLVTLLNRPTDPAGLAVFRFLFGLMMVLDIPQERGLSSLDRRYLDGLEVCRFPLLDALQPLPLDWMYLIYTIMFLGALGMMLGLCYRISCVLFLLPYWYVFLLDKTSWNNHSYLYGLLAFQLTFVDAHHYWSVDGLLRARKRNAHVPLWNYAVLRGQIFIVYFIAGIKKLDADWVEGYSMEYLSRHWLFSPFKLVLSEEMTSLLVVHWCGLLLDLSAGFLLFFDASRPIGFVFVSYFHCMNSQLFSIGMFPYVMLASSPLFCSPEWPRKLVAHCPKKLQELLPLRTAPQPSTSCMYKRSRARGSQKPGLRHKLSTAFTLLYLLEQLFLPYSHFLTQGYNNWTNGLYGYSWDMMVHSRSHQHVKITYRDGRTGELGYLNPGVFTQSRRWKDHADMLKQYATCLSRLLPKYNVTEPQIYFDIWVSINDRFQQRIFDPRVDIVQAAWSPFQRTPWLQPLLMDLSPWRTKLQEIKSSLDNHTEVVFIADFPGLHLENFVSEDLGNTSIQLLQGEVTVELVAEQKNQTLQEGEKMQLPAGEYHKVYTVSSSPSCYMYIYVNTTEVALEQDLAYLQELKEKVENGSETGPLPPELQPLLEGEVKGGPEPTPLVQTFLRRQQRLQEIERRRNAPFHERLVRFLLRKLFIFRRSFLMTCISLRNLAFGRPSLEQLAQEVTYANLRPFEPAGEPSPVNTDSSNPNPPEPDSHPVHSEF

T2: bovine vitamin K-dependent carboxylase (94,000 Mr protein from bovine liver microsomes) (bovine) (UniProt Q07175)
T2 sequence: T1 sequence


What was measured:
[1] = biological target: T1, bovine vitamin K-dependent carboxylase …; experiment: competition of cross-linking of 125I-FIXQ/S to the carboxylase, 100-fold excess of proFIX19
Source text: In order to evaluate the binding specificity of FIXQ/S and attain an independent estimate of the molecular weight of the carboxylase, we cross-linked ^125I-FIXQ/S to 60-fold affinity-purified material (FIG. 1, lane 3). […] The minor bands in lane 2 were unaffected by competition (lane 1). By subtracting the molecular weight of FIXQ/S (7,000 M_r) from the estimated size of the cross-linked complex we estimate that the size of the protein to which the FIXQ/S peptide binds is approximately 94,000 M_r.

[2] = biological target: T2, bovine vitamin K-dependent carboxylase (94,000 Mr protein from bovine liver microsomes) (bovine)

Molecule	specific activity, 14CO2 incorporation into FLEEL (cpm/mg protein/hr) (peptide FLEEL)	binding result [1]	stimulation of the incorporation of CO2 into FLEEL [2] [fold]
bovine vitamin K-dependent carboxylase (94,000 Mr protein from bovine liver microsomes) (from UniProt Q07175) (enzyme)	2.4e+09	–	–
AVFLDHENANKILNRPKRY [Peptide proFIX19]	–	binds	13
